Patent US20240116985A1, “STAPLED PEPTIDES AND METHODS THEREOF” (priority 2020, published 2024)
Starred links: 1 amine or outer side, 2 acyl side, 3 side chain; linkers in the order of their positions; H or OH if unused. Positions of bridges follow the written chain, without caps; N, C: chain ends. Non-standard residues stand in square brackets, D forms with d. Primed or numbered codes have the meaning given here. PyrS2″ = (S)-3-amino-1-((pent-4-en-1-yloxy)carbonyl)pyrrolidine-3-carboxylic acid (stapling residue), C=CCCCOC(=O)N1CC[C@@](N[*:1])(C(=O)[*:2])C1; B5(24) = 2-amino-2-(pent-4-en-1-yl)hept-6-enoic acid, 2,2-bis(4-pentenyl)glycine (stitching residue), C=CCCCC(CCCC=C)(N[*:1])C(=O)[*:2]; B5(4) = 2,2-bis(4-pentenyl)glycine = 2-amino-2-(pent-4-en-1-yl)hept-6-enoic acid (stitching residue), C=CCCCC(CCCC=C)(N[*:1])C(=O)[*:2]; B5(12) = 2-amino-2-(pent-4-en-1-yl)hept-6-enoic acid (two olefin side chains), C=CCCCC(CCCC=C)(N[*:1])C(=O)[*:2]; B5(19) = 2-amino-2-(pent-4-en-1-yl)hept-6-enoic acid (bis(4-pentenyl)glycine), C=CCCCC(CCCC=C)(N[*:1])C(=O)[*:2]; B5 = 2-amino-2-(pent-4-en-1-yl)hept-6-enoic acid, C=CCCCC(CCCC=C)(N[*:1])C(=O)[*:2]; Ala(morpholin-4-yl) = N[C@@H](CN1CCOCC1)C(=O)O; Phe(3-CONH2) = NC(=O)c1cccc(C[C@H](N)C(=O)O)c1; Phe(3-COOH) = N[C@@H](Cc1cccc(C(=O)O)c1)C(=O)O; Phe(3-Cl) = N[C@@H](Cc1cccc(Cl)c1)C(=O)O; Phe(3-OMe) = COc1cccc(C[C@H](N)C(=O)O)c1; Phe(2-Cl) = N[C@@H](Cc1ccccc1Cl)C(=O)O; Bta = N[C@@H](Cc1csc2ccccc12)C(=O)O; Lys(iPr) = CC(C)NCCCC[C@H](N)C(=O)O; αAllylPro = C=CC[C@@]1(C(=O)O)CCCN1; tBuAla = CC(C)(C)C[C@H](N)C(=O)O; 2Pal = N[C@@H](Cc1ccccn1)C(=O)O; 3Pal = N[C@@H](Cc1cccnc1)C(=O)O; 4Pal = N[C@@H](Cc1ccncc1)C(=O)O; 3Thi = N[C@@H](Cc1ccsc1)C(=O)O; Cha = N[C@@H](CC1CCCCC1)C(=O)O; S8 = C=CCCCCCC[C@](C)(N)C(=O)O; PyrS2(4) = not defined here; hSer = N[C@@H](CCO)C(=O)O; Nle = CCCC[C@H](N)C(=O)O; Aib = CC(C)(N)C(=O)O

B1: I-386 (peptide)
peptide: Ac-[αAllylPro]DA[B5]DEAA[2Pal]V[S8]F[Bta]Q-NH2
modifications: staple 1-4, 4-11; not fully specified; printed as Ac-PL3-Asp-Ala-B5-Asp-Glu-Ala-Ala-2pyrA-Val-S8-Phe-BztA-Gln-NH2
B2: I-1924 (peptide)
peptide: Ac-[αAllylPro]N[Cha][B5(12)]DQ[Lys(iPr)]A[Phe(3-Cl)]N[PyrS2(4)]F[Bta][hSer]-NH2
modifications: staple 1-4, 4-11; not fully specified; printed as Ac-PL3-Asn-Cha-B5-Asp-Gln-iPrLys-Ala-3C1F-Asn-PyrS2-Phe-BztA-Hse-NH2; reading uncertain
B3: I-1923 (peptide)
peptide: Ac-[αAllylPro]N[Cha][B5(12)]DQ[Lys(iPr)]A[3Pal]N[PyrS2(4)]F[Bta][hSer]-NH2
modifications: staple 1-4, 4-11; not fully specified; printed as Ac-PL3-Asn-Cha-B5-Asp-Gln-iPrLys-Ala-3PyrA-Asn-PyrS2-Phe-BztA-Hse-NH2; reading uncertain
B4: I-1916 (peptide)
peptide: Ac-[αAllylPro]D[tBuAla][B5(4)]D[Phe(3-COOH)]HAFL[PyrS2(4)][3Thi][Bta]A-NH2
modifications: staple 1-4, 4-11; not fully specified; printed as Ac-PL3-Asp-Npg-B5-Asp-3COOHF-His-Ala-Phe-Leu-PyrS2-3Thi-BztA-Ala-NH2; reading uncertain
B5: I-1918 (peptide)
peptide: Ac-[αAllylPro]D[tBuAla][B5(4)]D[Phe(3-COOH)]QAFL[PyrS2(4)][3Thi][Bta]A-NH2
modifications: staple 1-4, 4-11; not fully specified; printed as Ac-PL3-Asp-Npg-B5-Asp-3COOHF-Gln-Ala-Phe-Leu-PyrS2-3Thi-BztA-Ala-NH2; reading uncertain
B6: I-1913 (peptide)
peptide: Ac-[αAllylPro]D[tBuAla][B5(12)]D[Phe(3-COOH)][Nle]AFL[PyrS2(4)][3Thi][Bta]F-NH2
modifications: staple 1-4, 4-11; not fully specified; printed as Ac-PL3-Asp-Npg-B5-Asp-3COOHF-nLeu-Ala-Phe-Leu-PyrS2-3Thi-BztA-Phe-NH2; reading uncertain
B7: I-1922 (peptide)
peptide: Ac-[αAllylPro]N[Cha][B5(12)]DQ[Lys(iPr)]AF[hSer][PyrS2(4)]F[Bta][hSer]-NH2
modifications: staple 1-4, 4-11; not fully specified; printed as Ac-PL3-Asn-Cha-B5-Asp-Gln-iPrLys-Ala-Phe-Hse-PyrS2-Phe-BztA-Hse-NH2; reading uncertain
B8: I-1914 (peptide)
peptide: Ac-[αAllylPro]D[tBuAla][B5(12)]D[Phe(3-COOH)][Aib]AFL[PyrS2(4)][3Thi][Bta]F-NH2
modifications: staple 1-4, 4-11; not fully specified; printed as Ac-PL3-Asp-Npg-B5-Asp-3COOHF-Aib-Ala-Phe-Leu-PyrS2-3Thi-BztA-Phe-NH2; reading uncertain

biological target: full-length beta-Catenin (Uniprot ID P35222) (Homo sapiens (Human)) (UniProt P35222); assay: fluorescence polarization competition, 5FAM-TCF4 10-53 probe on full-length beta-catenin
Target sequence in this assay (P35222 2-781 limits assumed): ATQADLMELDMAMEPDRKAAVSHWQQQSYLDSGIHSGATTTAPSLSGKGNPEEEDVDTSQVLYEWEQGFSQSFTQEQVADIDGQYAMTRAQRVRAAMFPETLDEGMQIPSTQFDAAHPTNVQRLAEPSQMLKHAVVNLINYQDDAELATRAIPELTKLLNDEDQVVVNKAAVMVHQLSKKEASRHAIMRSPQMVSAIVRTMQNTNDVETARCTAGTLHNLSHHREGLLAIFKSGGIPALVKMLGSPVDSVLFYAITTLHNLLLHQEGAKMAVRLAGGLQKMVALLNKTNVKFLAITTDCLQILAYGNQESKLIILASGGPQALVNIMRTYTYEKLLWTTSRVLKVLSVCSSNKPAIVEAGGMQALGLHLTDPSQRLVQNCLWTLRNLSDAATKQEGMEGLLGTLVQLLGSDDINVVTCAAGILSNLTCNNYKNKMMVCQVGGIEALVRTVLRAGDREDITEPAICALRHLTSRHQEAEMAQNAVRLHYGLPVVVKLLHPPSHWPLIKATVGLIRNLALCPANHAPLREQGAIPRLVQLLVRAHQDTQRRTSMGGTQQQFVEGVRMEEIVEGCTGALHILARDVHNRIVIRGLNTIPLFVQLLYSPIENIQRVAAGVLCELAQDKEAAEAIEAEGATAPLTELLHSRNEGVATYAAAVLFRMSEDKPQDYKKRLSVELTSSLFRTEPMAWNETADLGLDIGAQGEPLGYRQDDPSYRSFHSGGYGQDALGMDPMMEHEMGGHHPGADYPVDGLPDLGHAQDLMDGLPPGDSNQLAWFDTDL

EC50 | Binder
16 nM | Ac-[αAllylPro]D[Cha][B5(24)]DDAAFS[PyrS2″][Phe(2-Cl)][Bta][dT]-NH2 (staple 1-4, 4-11) [I-1136]
21 nM | Ac-[αAllylPro]D[tBuAla][B5(24)]DDA[Lys(iPr)]FN[PyrS2″][Phe(2-Cl)][Bta]Q-NH2 (staple 1-4, 4-11) [I-1132]
6 nM | Ac-[αAllylPro]D[tBuAla][B5(4)]DDAAFN[PyrS2″][Phe(2-Cl)][Bta][Ala(morpholin-4-yl)]-NH2 (staple 1-4, 4-11; also: later eluting staple isomer) [I-1134]
20 nM | Ac-[αAllylPro]D[Cha][B5(4)]DDAAFS[PyrS2″][Phe(2-Cl)][Bta]T-NH2 (staple 1-4, 4-11) [I-1135]
5 nM | Ac-[αAllylPro]D[tBuAla][B5(4)]DDAAFN[PyrS2″][Phe(2-Cl)][Bta][Ala(morpholin-4-yl)]-NH2 (staple 1-4, 4-11; also: earlier eluting staple isomer) [I-1133]

biological target: full-length beta-Catenin (Uniprot ID P35222) (Homo sapiens (Human)) (UniProt P35222); assay: fluorescence polarization competition, full-length beta-catenin, competitor 5FAM-TCF4 10-53
Target sequence in this assay (P35222 whole entry, the tested form may be a part): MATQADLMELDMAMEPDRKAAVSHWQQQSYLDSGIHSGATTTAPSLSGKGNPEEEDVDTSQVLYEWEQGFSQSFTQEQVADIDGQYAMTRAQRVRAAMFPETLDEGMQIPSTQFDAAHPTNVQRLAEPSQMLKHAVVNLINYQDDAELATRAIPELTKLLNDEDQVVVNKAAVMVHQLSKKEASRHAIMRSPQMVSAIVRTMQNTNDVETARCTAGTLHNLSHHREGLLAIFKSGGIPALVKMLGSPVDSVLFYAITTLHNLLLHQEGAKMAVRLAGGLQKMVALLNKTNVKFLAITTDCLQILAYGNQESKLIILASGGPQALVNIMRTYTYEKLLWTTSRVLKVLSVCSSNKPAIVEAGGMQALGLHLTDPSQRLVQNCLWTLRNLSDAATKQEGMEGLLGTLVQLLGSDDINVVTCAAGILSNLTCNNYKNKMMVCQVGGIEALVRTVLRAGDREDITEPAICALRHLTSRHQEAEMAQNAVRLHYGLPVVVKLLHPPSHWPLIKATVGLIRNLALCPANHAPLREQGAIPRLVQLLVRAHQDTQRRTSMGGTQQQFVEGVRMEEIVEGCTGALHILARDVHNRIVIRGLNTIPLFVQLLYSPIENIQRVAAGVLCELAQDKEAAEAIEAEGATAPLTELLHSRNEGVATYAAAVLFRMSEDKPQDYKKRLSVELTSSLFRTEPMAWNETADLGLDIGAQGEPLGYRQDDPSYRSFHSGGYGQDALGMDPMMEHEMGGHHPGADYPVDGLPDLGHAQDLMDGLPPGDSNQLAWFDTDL

IC50 | Binder
16 nM | Ac-[αAllylPro]D[Cha][B5(24)]DDAAFS[PyrS2″][Phe(2-Cl)][Bta][dT]-NH2 (staple 1-4, 4-11) [I-1136]
21 nM | Ac-[αAllylPro]D[tBuAla][B5(24)]DDA[Lys(iPr)]FN[PyrS2″][Phe(2-Cl)][Bta]Q-NH2 (staple 1-4, 4-11) [I-1132]
6 nM | Ac-[αAllylPro]D[tBuAla][B5(4)]DDAAFN[PyrS2″][Phe(2-Cl)][Bta][Ala(morpholin-4-yl)]-NH2 (staple 1-4, 4-11; also: later eluting staple isomer) [I-1134]
20 nM | Ac-[αAllylPro]D[Cha][B5(4)]DDAAFS[PyrS2″][Phe(2-Cl)][Bta]T-NH2 (staple 1-4, 4-11) [I-1135]
5 nM | Ac-[αAllylPro]D[tBuAla][B5(4)]DDAAFN[PyrS2″][Phe(2-Cl)][Bta][Ala(morpholin-4-yl)]-NH2 (staple 1-4, 4-11; also: earlier eluting staple isomer) [I-1133]

biological target: full-length beta-Catenin (Uniprot ID P35222) (Homo sapiens (Human)) (UniProt P35222); assay: fluorescence polarization competition; 10 nM full-length beta-catenin, competitor 10 nM 5FAM-TCF4(10-53)
Target sequence in this assay (P35222 whole entry, the tested form may be a part): as above

EC50 | Binder
3150 nM | Ac-[αAllylPro]DA[B5(4)]DEAAFV[S8][4Pal][Bta]Q-NH2 (staple 1-4, 4-11) [I-385]
5000 nM | B1

biological target: full-length beta-Catenin (Uniprot ID P35222) (Homo sapiens (Human)) (UniProt P35222); assay: fluorescence polarization competition; full-length beta-catenin with 5FAM-labeled TCF4 (residues 10-53) probe as competitor
Target sequence in this assay (P35222 whole entry, the tested form may be a part): as above

IC50 | Binder
3150 nM | Ac-[αAllylPro]DA[B5(4)]DEAAFV[S8][4Pal][Bta]Q-NH2 (staple 1-4, 4-11) [I-385]
5000 nM | B1
177 nM | Ac-[αAllylPro]DA[B5(4)]DEAAFV[S8][2Pal][Bta]Q-NH2 (staple 1-4, 4-11; also: later eluting staple isomer) [I-384]

biological target: full-length beta-Catenin (Uniprot ID P35222) (Homo sapiens (Human)) (UniProt P35222); assay: fluorescence polarization competition; 10 nM full-length beta-catenin with 10 nM 5FAM-labeled TCF4 residues 10-53 probe (competitor displaced)
Target sequence in this assay (P35222 2-781 limits assumed): as the sequence (P35222 2-781 limits assumed) above

IC50 | Binder
1610 nM | B2
74 nM | Ac-[αAllylPro]N[Cha][B5(19)]DQ[Lys(iPr)]AFN[PyrS2″][Phe(3-CONH2)][Bta][hSer]-NH2 (staple 1-4, 4-11) [I-1929]
154 nM | Ac-[αAllylPro]N[Cha][B5(19)]D[hSer][Lys(iPr)]AFN[PyrS2″]F[Bta][hSer]-NH2 (staple 1-4, 4-11) [I-1933]
10000 nM | B3
8 nM | B4
475 nM | Ac-[αAllylPro]N[Cha][B5(19)]DQ[Lys(iPr)]A[Phe(3-CONH2)]N[PyrS2″]F[Bta][hSer]-NH2 (staple 1-4, 4-11) [I-1925]
5 nM | B5
1560 nM | Ac-[αAllylPro]N[Cha][B5(19)]DQ[Lys(iPr)]SFN[PyrS2″]F[Bta][hSer]-NH2 (staple 1-4, 4-11) [I-1931]
119 nM | B6
417 nM | Ac-[αAllylPro]N[Cha][B5(19)]DQ[Lys(iPr)]A[Phe(3-OMe)]N[PyrS2″]F[Bta][hSer]-NH2 (staple 1-4, 4-11) [I-1926]
457 nM | B7
887 nM | Ac-[αAllylPro]N[Cha][B5(19)]DQ[Lys(iPr)]AFN[PyrS2″][Phe(3-Cl)][Bta][hSer]-NH2 (staple 1-4, 4-11) [I-1928]
1560 nM | Ac-[αAllylPro]N[Cha][B5(19)]DQ[Lys(iPr)]AFN[PyrS2″][Phe(3-OMe)][Bta][hSer]-NH2 (staple 1-4, 4-11) [I-1930]
52 nM | B8
5140 nM | Ac-[αAllylPro]N[Cha][B5(19)]DQ[Lys(iPr)]AFN[PyrS2″][3Pal][Bta][hSer]-NH2 (staple 1-4, 4-11) [I-1927]
